# Measurements taken from patent publication US20260085105A1 (Amgen, published 2026).
# T1: MADD peptide on HLA-A*02:01 (human)
# T1 peptide: ILLEHKVVL
# T2: TP2 peptide on HLA-A*02:01 (human)
# T2 peptide: KILEDVVGV
# T3: KIAA1033 peptide on HLA-A*02:01 (human)
# T3 peptide: KVLNKVITV
# T4: GPC5 peptide on HLA-A*02:01 (human)
# T4 peptide: KLLEQVNRI
# T5: ANO5 peptide on HLA-A*02:01 (human)
# T5 peptide: IVMEHVVFL
# T6: ATAD2 peptide on HLA-A*02:01 (human)
# T6 peptide: KILEALQRV
# T7: MIA3 peptide on HLA-A*02:01 (human)
# T7 peptide: KVLDKVFRA
# T8: NSD1 peptide on HLA-A*02:01 (human)
# T8 peptide: KVQEQVHKV
# T9: MAGE-A4 (100% identical in MAGEA8) peptide on HLA-A*02:07 (human)
# T9 peptide: KVLEHVVRV
# T10: HTR5A peptide on HLA-A*02:01 (human)
# T10 peptide: KVLETLVTV
# T11: RG1L peptide on HLA-A*02:01 (human)
# T11 peptide: FLLETVVRV
# T12: HNRNPR peptide on HLA-A*02:01 (human)
# T12 peptide: KVWGNVVTV
# T13: CNOT1 peptide on HLA-A*02:01 (human)
# T13 peptide: KVLGIVVGV
# T14: TRMT1L peptide on HLA-A*02:01 (human)
# T14 peptide: VALEHFVLV
# T15: SYNE3 peptide on HLA-A*02:01 (human)
# T15 peptide: KLLDLQVRV
# T16: TSC1 peptide on HLA-A*02:01 (human)
# T16 peptide: SLLGHVIRL
# T17: AXIN1 peptide on HLA-A*02:01 (human)
# T17 peptide: ILDEHVQRV
# T18: GRP78 peptide on HLA-A*02:01 (human)
# T18 peptide: KVTHAVVTV
# T19: PTRF peptide on HLA-A*02:01 (human)
# T19 peptide: KLLEKVRKV
# T20: MAGE-A4 (100% identical in MAGEA8) peptide on HLA-A*02:05 (human)
# T20 peptide: KVLEHVVRV
# T21: HERC4 peptide on HLA-A*02:01 (human)
# T21 peptide: KVLEILHRV
# T22: PSME2 peptide on HLA-A*02:01 (human)
# T22 peptide: KVLERVNAV
# T23: MAGE-A4 (100% identical in MAGEA8) peptide on HLA-A*02:01 (human)
# T23 peptide: KVLEHVVRV
# Legend:
# [1] = target: T1, MADD peptide on HLA-A*02:01; test: killing
# [2] = target: T2, TP2 peptide on HLA-A*02:01; test: killing
# [3] = target: T3, KIAA1033 peptide on HLA-A*02:01; test: killing
# [4] = target: T4, GPC5 peptide on HLA-A*02:01; test: killing
# [5] = target: T5, ANO5 peptide on HLA-A*02:01; test: killing
# [6] = target: T6, ATAD2 peptide on HLA-A*02:01; test: killing
# [7] = target: T7, MIA3 peptide on HLA-A*02:01; test: killing
# [8] = target: T8, NSD1 peptide on HLA-A*02:01; test: killing
# [9] = target: T9, MAGE-A4 (100% identical in MAGEA8) …; test: killing
# [10] = target: T10, HTR5A peptide on HLA-A*02:01; test: killing
# [11] = target: T11, RG1L peptide on HLA-A*02:01; test: killing
# [12] = target: T12, HNRNPR peptide on HLA-A*02:01; test: killing
# [13] = target: T13, CNOT1 peptide on HLA-A*02:01; test: killing
# [14] = target: T14, TRMT1L peptide on HLA-A*02:01; test: killing
# [15] = target: T15, SYNE3 peptide on HLA-A*02:01; test: killing
# [16] = target: T16, TSC1 peptide on HLA-A*02:01; test: killing
# [17] = target: T17, AXIN1 peptide on HLA-A*02:01; test: killing
# [18] = target: T18, GRP78 peptide on HLA-A*02:01; test: killing
# [19] = target: T19, PTRF peptide on HLA-A*02:01; test: killing
# [20] = target: T20, MAGE-A4 (100% identical in MAGEA8) …; test: killing
# [21] = target: T21, HERC4 peptide on HLA-A*02:01; test: killing
# [22] = target: T22, PSME2 peptide on HLA-A*02:01; test: killing
# [23] = target: T23, MAGE-A4 (100% identical in MAGEA8) …; test: cells that express the antigen: NCI-H1755; TCR-Ts of three donors; full-length, on cells
binder,measurement,setting,value
"TCR3 of Tables 1A and 1B (TCR2 of the examples) (TCR, V domains shown) Valpha: GESVGLHLPTLSVQEGDNSIINCAYSNSASDYFIWYKQESGKGPQFIIDIRSNMDKRQGQRVTVLLNKTVKHLSLQIAATQPGDSAVYFCAEASPRQDTGRRALTFGSGTRLQVQP Vbeta: DAGVTQSPTHLIKTRGQQVTLRCSPKSGHDTVSWYQQALGQGPQFIFQYYEEEERQRGNFPDRFSGHQFPNYSSELNVNALLLGDSALYLCASSLWTGSGELFFGEGSRLTVL",binding result,[1],no recognition
same,binding result,[2],no recognition
same,binding result,[3],no recognition
same,binding result,[4],no recognition
same,binding result,[5],no recognition
same,binding result,[6],no recognition
same,binding result,[7],no recognition
same,binding result,[8],no recognition
same,binding result,[9],recognises
same,binding result,[10],no recognition
same,binding result,[11],no recognition
same,binding result,[12],no recognition
same,binding result,[13],no recognition
same,binding result,[14],no recognition
same,binding result,[15],no recognition
same,binding result,[16],no recognition
same,binding result,[17],no recognition
same,binding result,[18],no recognition
same,binding result,[19],no recognition
same,binding result,[20],recognises
same,binding result,[21],no recognition
same,binding result,[22],no recognition
same,E:T EC50,[23],0.01 effector:target ratio
